Measured values: patent US20250034594A1, “RNA-GUIDED GENOME RECOMBINEERING AT KILOBASE SCALE” (THE BOARD OF TRUSTEES OF THE LELAND STANFORD JUNIOR …, priority 2021, published 2025)

B1: SSAP_260: SEQ ID NO: 429; Clostridium cochlearium (protein, listed as Clostridium cochlearium)
chain: ATNESLKNQLATKKETGIGSAGNTIKSLINSPVIKKRFEEVLDKRAPQYMSSIVNLVNSDTNLKKCDQMSVIASCMVAATMDLPVDKNLGYAWIVPYGNKAQFQMGYKGYVQLALRTGQYKSINVIEVHEGELEEWNPLTEELKIDFSKKESDAVIGYAGYFELLNGFKKSTYWTKEQITKHKNKFSKSDFGWKKDFDAMAKKTVLRNMLSKWGILSIEMQNAYTADHGVIKNEIMETGEVKENVEYIEADFESYEGTSIEEGGSNE
B2: SSAP_261: SEQ ID NO: 430; Peptoniphilus grossensis (protein, listed as Peptoniphilus grossensis)
chain: TNIQKQENRALSPVNQMKNLLKNQGMQNLFADALKENKDRFLASIIDLYNGDTSLQDCNPKEVVMEALKAATLNLPINKNLGYAYIVPYNSKGTTRPQFQIGYKGYIQMAQRSGQYKALNAGILYEGMEVKRDFLRGTFEIIGEPKSDKVMGYFAYFQLLNGYEKAIYMTKDEVTEHAERYSQSYGSKYSPWKKQFDEMGQKTVIKKLLSKYGVLTTEFQDAVKEEEDREVLRATENNAMLEMTNPDEEEETIEVNPETGEIIEDDVKAPF
B3: SSAP_78: SEQ ID NO: 247 (protein)
chain: RTDGTKEAGAAATAPTEGKAPAKAHKPADTIGAMIEKLKPQIERALPKHVTPDRMARMALTAIRNNPKLGQAEAVSLMGSIIQASQLGLEPNTPLGQCYIIPYNSKNGMQAQFQMGYKGIVDLAHRSGQYRQLTAHPVDEADEFRYSYGLNPDLVHVPAEKPSGKITHYYAVYHLTNGGFDFRVWSREKVEAHAKQYSKSFSSGPWQTNFDQMACKTVMIDLLRYAPKSVEIAKATSADNRTHTINPEDPDLNIDTIDGDFELEGEER
B4: SSAP_292: SEQ ID NO: 461; Paenibacillus rhizosphaerae (protein, listed as Paenibacillus rhizosphaerae)
chain: SSKLVEINSKLDSFLDAQHKAMPKGFNKTRFLQNSMSVLRDIEGLEQCDPKSVALVMLKGAFLGLDFFNKECYPVVYAGKVEFQTDYKGEVKLVKKYSTKPVREIYAKLVRQGDDFSEEIVAGSQTINFKPLPFNNGEIVGAFAVVNYVDGTMQYDTMSTEEIEKIKVNFSRKSKKTNEYSKAWVVTPGEMYKKTVLRRLCKTIDLDFDTIEQAQAFEDAADMDFNQDSKPQQQSPLNPMVIDVEYEEVKEEQADAAEQE
B5: SSAP_230: SEQ ID NO: 399; Leuconostoc pseudomesenteroides (protein)
chain: ANEITLAKQLSSDKVVEQFAATAGESAKSFAKEVALTISGNPALQHAKLGTVIVEATKASALGLSLLPTVGEAYLVPYKGDAQFQLGYKGIVQLAMRSGQMKSFGAESVYEGENPKWDKYNQELVTDGEETGKIIGYYAFFTLVNGFKMAAYWPKEKVEAHRDRFSKSKKGPWSTDFDAMAKKTVLKSILQYAPKSSEMKRALAEDTQAEYVQAGIQDVTPEPANIEAPIETANAPEINAQEESLFGELSDVDKETAPNPFAQNLGGDN
modifications: Leuconostoc pseudomesenteroides
B6: SSAP_312: SEQ ID NO: 481; Gallionellaceae bacterium CG1_02_56_997 (protein)
chain: GRKEVERIRDGSRGYQAAKKYKKESTWDTDFVAMGLKTAIRRICKFLPKSPELATALAMDEQAGRQNLNLDDVINGSYTPVVDKDTGEIVDVADGGKTGNSNAATSTKLEKLEKIVAALRDANSVEALDEIYIRAEGDLDDANLEIAMREYRKCKDAISNSLI
modifications: Gallionellaceae bacterium CG1_02_56_997
B7: SSAP_201: SEQ ID NO: 370; Streptomyces reniochalinae (protein, listed as Streptomyces reniochalinae)
chain: SQISNAVAKRDNSPGAMVQQYKADFSTVLPDHVKPDTWVRLAQGVLRRDKNLAQAAERNPGSLMTALLDCARLGHEPGTESFYLVPFGGEVQGIEGYRGVVERMYRAGAIASVKAEVVCQGDDFDYQPDMDKPRHRVDWFGDRGPIVGAYAYAIFKDGSTSRVAVINRAYIDKVKKESKGSDRATSPWMKWEEQMVLKTVAKRLEPWVPTSNEWRREQLRAAREVANEPTPPTTPAPPAPEQVDPDTGEVIDGELVDDTPTQ
B8: SSAP_207: SEQ ID NO: 376; Mycobacterium sp. 1245499.0 (protein, listed as Mycobacterium sp.)
chain: TTQPEYKPVAQGADKQMTTGKLLKMLEPEIGRALPKGMDPDRICRLVMTEVRKNPMLTQCTQESFAGALLTASALGLEPGVNGEAWLVPYRDRKRGIVECQFIMGYNGVAKLFWQSPHADRLDAQLVCANDHFRYVKGLSPILEHVESDGDRGDPIAYYAIVGVKGAQPMWDVFKPEAIAQLRGGRVGTKGDIDDPQRWMERKTALKQVLKLAPKSTRLDLAIRADERSGSDLYKSQGMEVHAIEPGFIETEAEPETQEQ
B9: SSAP_284: SEQ ID NO: 453; Paenibacillus sp. VMFN-D1 (protein, listed as Paenibacillus sp.)
chain: AKALLENKLQERAAGASTPSTQGTSLKALLNSPAIKKRFDELLDKRSAQYMTSIVNLYNSDAMLQKAEPMSVISSCIVAATLDLPVDKNLGYAWIVPYSGKAQFQLGYKGYIQLALRTGQYKAINVIEVYEGELVKWNPLTEALELDFEKRKSDAVIGYAGYFELINGFRKSVYWTREQIESHRKKFSKSDFGWKKDYDAMAKKTIIRNMLSKWGILSIEMQDAYSKEIEAIPPLNNENEEDPPIDLTPEDYRVGDEPQDGKEQGEMNFE

Tested on: gene editing with Cas9
Test: Screen of 322 new SSAP proteins, gene editing activity with Cas9 (Table 5)
Format: cell-based
Set-up: Cas9 with SSAP activity: scale not given here
Settings: not given
Method in brief: (§1)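 The 322 SSAP proteins were found in sequence data and then synthesized. Each was screened for gene editing activity when paired with Cas9 and with dCas9.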

Molecule	Cas9 with SSAP activity
B1	−3.745
B2	−0.535
B3	−0.849
B4	−4.432
B5	0.548
B6	−0.905
B7	−0.461
B8	−4.938
B9	−1.673

Same assay, conditions: normalized

Molecule	Cas9 with SSAP activity (normalized)
B1	−0.581
B2	−0.174
B3	−0.295
B4	−0.752
B5	0.321
B6	−0.436
B7	−0.195
B8	−0.798
B9	−1.388

Tested on: gene editing with dCas9
Test: Screen of 322 new SSAP proteins, gene editing activity with dCas9 (Table 5)
Format: cell-based
Set-up: dCas9 with SSAP activity: scale not given here
Settings: not given
Method in brief: as §1

Molecule	dCas9 with SSAP activity
B1	−7.734
B2	−7.740
B3	−7.766
B4	−7.905
B5	−7.949
B6	−0.097
B7	−8.036
B8	−8.053
B9	−8.073

Same assay, conditions: normalized

Molecule	dCas9 with SSAP activity (normalized)
B1	−1.301
B2	−1.199
B3	−2.216
B4	−1.546
B5	−1.164
B6	−0.073
B7	−1.510
B8	−1.345
B9	−1.172

Tested on: gene editing with Cas9 and dCas9
Test: Screen of 322 new SSAP proteins, activity across all experiments (Cas9 and dCas9, Table 5)
Format: cell-based
Set-up: scale not given here
Settings: not given
Method in brief: as §1

Molecule	Activity across all experiments
B1	−5.739
B2	−4.137
B3	−4.307
B4	−6.169
B5	−3.700
B6	−0.501
B7	−4.249
B8	−6.496
B9	−4.873
